Results as given in patent US20170158761A1 (EWHA UNIVERSITY INDUSTRY COLLABORATION FOUNDATION, published 2017).
Where no end group is shown, it is not given here.

Target: T1, Δ-dTCTP (FL deleted dimer TCTP) (Pan troglodytes (Chimpanzee), UniProt A5A6K2 1-172, disulfide bridge between the C-terminal cysteines (Cys172) of the two chains)
T1 construct: also called A-dTCTP; dimer form of FL domain-deleted TCTP
T1 sequence: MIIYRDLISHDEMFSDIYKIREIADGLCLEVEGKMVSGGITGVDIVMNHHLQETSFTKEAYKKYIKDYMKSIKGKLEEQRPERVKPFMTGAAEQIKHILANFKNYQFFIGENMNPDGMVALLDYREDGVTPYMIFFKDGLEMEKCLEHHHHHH
Test: ELISA: biotinylated dTBP2 (0.01 to 10 µM) on streptavidin plate, TCTP protein at 0.2 µg/ml, anti-HRF rabbit antibody detection
Protocol: To investigate the affinity to dTBP2 of f-TCTP, Δ-dTCTP, and Del-N11dTCTP of the present invention, biotin was conjugated to the COOH-terminus of dTBP2 known to bind to HRF, followed by purification. The purified protein was immobilized in the plastic well coated with streptavidin, to which f-TCTP, Δ-dTCTP, and Del-N11dTCTP were added. Then, the binding strength of each protein was investigated.
Particularly, 50 μL of the biotinylated dTBTP2 dissolved in a buffer (TBS [25 mM Tris, 150 mM NaCl, pH 7.2], 0.1% BSA, 0.05% Tween-20) at different concentrations of […] was added to Reacti-Bind Streptavidin Coated Polystyrene Plates (PIERCE), followed by reaction at room temperature for 2 hours. The plate was washed with a washing buffer three times. Each of f-TCTP, Δ-dTCTP, and Del-N11dTCTP was dissolved in TBS at the concentration of 0.2 μg/ml. 60 μl of the mixture was added to each well of the plate, followed by reaction for 1 hour. The plate was washed with a washing buffer three times. 100 μl of anti-HRF rabbit antibody (Bio-Rad) diluted in a buffer (1:2000) was added to each well of the plate, which stood at room temperature for 30 minutes. […] Color development was measured at 450 nm and 570 nm using an ELISA reader (Bio-Rad), and affinity was determined by the difference.

B1: biotinylated dTBP2 (dTCTP binding peptide 2) (peptide)
peptide: WYVYPSM-biotin
notes: also called biotinylated dTBTP2
binding result: binds
